# Measurements taken from patent US20240165252A1, “ANTIBODY-DRUG CONJUGATE AND MEDICAL USE THEREOF” (Shanghai Hansoh Biomedical Co., Ltd., priority 2021, published 2024).
# Changes are numbered by the printed parent chain.
# B1: humanized anti-BCMA antibody Ab2 (antibody, human IgG1, kappa, V domains shown)
# VH: QVQLVQSGAEVKKPGASVKVSCKASGYSFSDYEMHWVRQAPGQGLEWIGGIHPGSGGSAYNQKFKGRVTLTVDKSTSTAYMELSSLRSEDTAVYYCTRLDYGYSWAWFPYWGQGTLVTVSA
# VL: EIVLTQSPATLSLSPGERATLSCSASSSVIYMNWYQQKPGQSPKIWIYGISNLASGVPARFSGSGSGTDFTLTISSLEPEDFAVYYCQQRSSYPLTFGGGTKVEIKR
# notes: Human IgG1/kappa, expressed in HEK293 cells
# B2: humanized anti-BCMA antibody Ab1 (antibody, human IgG1, kappa, V domains shown)
# VH: B1 VH with I48M, L70M, V72R, K74T, A79V
# VL: B1 VL with S42A, K44R, I45L, W46L, V57I
# notes: as for B1
# B3: humanized anti-BCMA antibody Ab3 (antibody, human IgG1, kappa, V domains shown)
# VH: B1 VH with R67K, V68A
# VL: B1 VL with V3L, S22T, Q41S, D69S
# notes: as for B1
# B4: antibody drug conjugate ADC2 (y = 4) (antibody, human IgG1, kappa, V domains shown)
# VH: B1 VH
# VL: B1 VL
# modifications: Linker-drug compound D (exatecan derivative) coupled to Ab2 after TCEP reduction. Average load y = 4 per antibody. Sites not stated.
# B5: murine monoclonal antibody M1 (antibody, V domains shown)
# VH: QVQLQQSGAELVRPGASVKLSCKALGYSFSDYEMHWVRQTPVHGLEWIGGIHPGSGGSAYNQKFKGKATLTVDKSSSTAYMELSSLTSEDSAVYYCTRLDYGYSWAWFPYWGQGTLVTVSA
# VL: EILLTQSPAIIVTSPGEKVTITCSASSSVIYMNWYQQKPGSSPKIWIYGISNLASGVPARFSGSGSGTSFSFTINSMEAEDVATYYCQQRSSYPLTFGAGTKLELK
# notes: It is a hybridoma-derived murine antibody, yet the ELISA protocol names a goat-anti-human secondary antibody; also called murine antibody M1
# Assays:
# [1] = target: BCMA expressed on cells (HEK-293T cells overexpressing BCMA; NCI-H929 tumor cells) (human) (UniProt Q02223); experiment: cell-based or functional assay
# [2] = target: T1, His-tagged extracellular domain of human BCMA (BCMA-His) (human); experiment: indirect ELISA, BCMA-His coated on plate
# T1 construct: Bought protein; also called BCMA His protein; human BCMA His antigen
# T1 chain: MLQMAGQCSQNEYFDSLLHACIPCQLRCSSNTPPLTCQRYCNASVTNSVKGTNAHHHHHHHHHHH
# Description: (§1) After washing, the plate 4 times with PBST (pH 7.4 PBS containing 0.05% Tween-20), 3% bovine serum albumin (BSA) blocking solution diluted with PBST was added at 150 μl/well and incubated at room temperature for 1 hour for blocking. After completion of the blocking, the blocking solution was discarded, and the plate was washed 4 times with PBST buffer.
# (§2) The antibody to be tested was 10-fold gradient diluted with PBST containing 3% BSA with the initial concentration of 1 μM to obtain 10 dilutions which were added to the microtiter plate at 100 μl/well and incubated at room temperature for 1 hour. After completion of the incubation, the plate was washed 4 times with PBST. HRP-labeled goat-anti-human secondary antibody (Abcam, Cat #ab97225) diluted with PBST containing 3% BSA was added at 100 μl/well and incubated at room temperature for 1 hour. The plate was washed 4 times with PBST, and then TMB chromogenic substrate (Cell Signaling Technology, cat #7004S) was added at 100 μl/well and incubated at room temperature in the dark for 1 minute. The stop solution (Cell Signaling Technology, cat #7002S) was added at 100 μl/well to terminate the reaction. The absorbance value at 450 nm was read with a microplate reader (BioTek, model Synergy H1). The data were analyzed.
# [3] = target: T2, BCMA expressed on cells (HEK-293T cells overexpressing BCMA; NCI-H929 tumor cells) (human, UniProt Q02223 1-184); experiment: cell-based or functional assay
# T2 sequence (looked up): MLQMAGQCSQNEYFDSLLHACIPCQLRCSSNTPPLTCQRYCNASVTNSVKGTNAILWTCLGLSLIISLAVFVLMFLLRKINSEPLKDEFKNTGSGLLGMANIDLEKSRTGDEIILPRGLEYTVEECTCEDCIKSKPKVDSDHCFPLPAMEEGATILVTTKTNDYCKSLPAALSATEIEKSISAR
# [4] = target: T2, BCMA expressed on cells (HEK-293T cells …); experiment: flow cytometry on NCI-H929 cells
# Description: (§3) The cultured cells with high BCMA expression (HEK-293T cells overexpressing BCMA; tumor cells expressing BCMA, NCI-H929) were collected. The cell density was adjusted and the cells were plated on a 96-well U-bottomed plate at 1×10⁵ to 2×10⁵ cells per well. The plate was centrifuged at 1200 g for 5 min and the supernatant was removed. 100 μl of gradient diluted antibody solution or mouse immunized serum was added and incubated at 4° C. for 60 min. The plate was centrifuged at 1200 g for 5 min and the supernatant was removed. The cells were washed twice with PBS. A fluorescently labeled secondary antibody (PE-GAH or PE-GAM) was added at 100 μl per well and incubated at 4° C. for 60 min. The plate was centrifuged at 1200 g for 5 min and the supernatant was removed. The cells were washed twice with PBS and then re-suspended in PBS. The signal was detected by using a flow cytometer, and a concentration curve was plotted for result analysis.
# [5] = target: T2, BCMA expressed on cells (HEK-293T cells …); experiment: cell-based or functional assay; remark: listed apart in the source
# [6] = target: T2, BCMA expressed on cells (HEK-293T cells …); experiment: flow cytometry on HEK-293T/BCMA cells
# Description: as §3
# [7] = target: T1, His-tagged extracellular domain of …; experiment: indirect ELISA, BCMA His coated on plate
# Description: as §1, §2
Molecule,Killing Effect (IC50 nM) NCI-H929 [1] [nM],EC50 [2] [nM],"Endocytosis efficiency %, 0.5 hour [3] [%]","Endocytosis efficiency %, 2 hours [3] [%]",EC50 [4] [nM],Killing Effect (IC50 nM) NCI-H929 [5] [nM],EC50 [6] [nM],EC50 [7] [nM]
IgG1 iso ADC (y = 4) (antibody),> 133,–,–,–,–,–,–,–
B1,–,0.033,36.7,48,3.5,–,–,–
B2,–,0.022,36.6,49.5,4.6,–,–,–
B3,–,0.034,35.5,45.7,3.9,–,–,–
B4,–,–,–,–,–,0.76,–,–
B5,–,–,–,–,128,–,115,0.53
